Experiments:
[1] = molecular target: T1, Fm-G2D2D, Fm-K[F1]DBGDEVDGIDGPK[F1]GY (compound 10 of Table 12)
T1 chain: KDXGDEVDGIDGPKGY

[2] = molecular target: T2, Fm-CGD2D, Fm-K[F1]DBJGDEVDGIDGJPK[F1]GY (compound 11 of Table 12)
T2 chain: KDXXGDEVDGIDGXPKGY

B1: CPP32 protease (protein)
chain: SGISLDNSYKMDYPEMGLCIIINNKNFHKSTGMTSRSGTDVDAANLRETFRNLKYEVRNKNDLTREEIVELMRDVSKEDHSKRSSFVCVLLSHGEEGIIFGTNGPVDLKKITNFFRGDRCRSLTGKPKLFIIQACRGTELDCGIETDSGVDDDMACHKIPVEADFLYAYSTAPGYYSWRNSKDGSWFIQSLCAMLKQYADKLEFMHILTRVNRKVATEFESFSFDATFHAKKQIPCIVSMLTKELYFYH
With B1 the “hydrolysis rate, fold increase over compound 4 (Fm-DEVD)” value [1] was “The hydrolysis rate was increased by 3-fold between compounds 4 ... and 10”, the “hydrolysis rate, fold increase over compound 10 (Fm-G2D2D)” value [2] was “the hydrolysis rate was further increased by ca. 3-fold over the above glycine residue insertion” and the “substrate hydrolysis rate, fold increase over compound 4 (Fm-DEVD)” value [2] was “overall at least a 9-fold increase in substrate hydrolysis rate was accomplished (compounds 4 and 11, Table 12)”.
